Paper PMC7822688, “W196 and the β-Hairpin Motif Modulate the Redox Switch of Conformation and the Biomolecular Interaction Network of the Apoptosis-Inducing Factor” (Oxidative Medicine and Cellular Longevity, 2021)
“And” between values parts separate entries of the source, which are not always exact repeats. Equal values may be shown once. “Also recorded” adds a separate entry of the source. Read-outs that look alike come from different tables or passages of the source.

What was measured:
[1] = Stopped-flow CTC formation on mixing photoreduced hAIF∆1-101 with NAD+; type: biochemical; settings: for k CTC: hAIF∆1-101phrd variants mixed with NAD+; for k CTC / k CTC/Kd^NAD+ / Kd: anaerobic, 25°C, pH 7.4; for k CTC/Kd^NAD+: hAIF∆1-101phrd variants; for Kd: transient hAIF∆1-101phrd:NAD+ complex, read-out: K d ^NAD+
Description: Stopped-flow spectrophotometry was also used to evaluate the rate constants of CTC formation when mixing photoreduced hAIF∆1-101 (hAIF∆1-101phrd) with increasing concentrations of NAD^+ (0.125-5 mM) under anaerobic conditions. hAIF∆1-101phrd samples were obtained by photoreduction in the presence of 5 μM methyl viologen, 3 μM 5-deazariboflavin, and 20 mM EDTA. The assays were performed at 25 °C in 50 mM potassium phosphate, pH 7.4, under anaerobic conditions (obtained by several cycles of vacuum application and bubbling with O2 free argon). Data were global fitted to a single step model (A→B), and kobs were determined at the different NAD^+ concentrations assayed. These values were then fitted to the equation that describes the formation of a transient hAIF∆1-101phrd:NAD^+ complex prior to the CTC stabilization: (4) kobs=kCTCNAD^+/KdNAD++NAD^+, in which kCTC is the limiting rate constant for the rearrangement of the encounter complex to form the CTC, and Kd^NAD+ is the dissociation constant for the mentioned transient encounter complex.

CHCHD4 = molecular target: T1, CHCHD4 (Homo sapiens, UniProt Q8N4Q1); assay: ITC binary interaction with CHCHD4; type: binding; settings: for Kd / ΔG / ΔH / -TΔS: 25°C, pH 7.4
T1 construct: His6 (N); made in house; host or cells: E. coli C41 (DE3)
T1 sequence (Q8N4Q1 1-142): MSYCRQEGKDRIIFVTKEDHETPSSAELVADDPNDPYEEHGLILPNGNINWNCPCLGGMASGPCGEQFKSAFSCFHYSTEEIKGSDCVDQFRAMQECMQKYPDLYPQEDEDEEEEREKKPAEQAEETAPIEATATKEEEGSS
Description: (§1) ITC assays were carried out using an Auto-iTC200 (MicroCal, Malvern-Panalytical, Malvern, UK) thermostated at 25 °C. Typically, […] protein partner and dsDNA samples—prepared as described below—were used to titrate ~10 μM hAIF∆1-101 variants. All solutions were degassed at 15°C for 1 min before each assay. A sequence of 2 μL injections of titrant solution every 150 s was programmed, and the stirring speed was set to 750 rpm. The association constant (Ka), the enthalpy of binding (ΔH), and the binding stoichiometry (N) were estimated through nonlinear least-squares regression of the experimental data employing a single-ligand binding site model implemented in Origin 7.0 (OriginLab, Northampton, MA). The dissociation constant (Kd), the free energy change (ΔG), and the entropy change (ΔS) were obtained from basic thermodynamic relationships.

dsDNA = assay: ITC binary interaction with dsDNA; type: binding; settings: for Kd for DNA higher than WT: hAIFΔ1−101ox, binary complexes; for Kd: oxidized hAIF∆1-101 titrated with 15-bp dsDNA, 25°C, pH 7.4
Description: as §1
Since hAIF binds DNA unspecifically, a 0.5 mM dsDNA sample was prepared from 1 mM solutions of HPLC-purified forward and a reverse complementary 15-bp oligonucleotides (5′- GGT TAG TTA TGC GCG -3′; randomly designed) synthetized by Integrated DNA Technologies. The pair of oligonucleotides was mixed at an equimolar ratio and annealed by heating 1 min at 99°C and performing a 3 h temperature scanning from 95 to 25°C, decreasing 1°C each 3 min. 0.5 mM dsDNA stock solutions were obtained.

[2] = for T m CTC ^FAD − Tm^FAD: CTC state relative to oxidized state of the same variant; for ΔTm^FAD: variant relative to WT; for T m ^FAD: ~2 μM protein, 50 mM potassium phosphate; for ΔTm CTC^FAD: CTC state, variant relative to WT CTC
Description: Thermal denaturation curves were followed by changes in the FAD fluorescence emission upon its release from the protein by sample excitation at 450 nm. Curves were monitored from 10 °C to 90 °C with scan rates of 1°C/min, both in the absence and presence of a 100-fold excess of NADH. The curves for each variant were roughly normalized to values between 0 and 1 and globally fitted to a two-step process describing a single transition unfolding equilibrium (native (N)↔unfolded (U)) by using the following equation [23]: (1) Sobs=SN+mNT+SU+mUTe^−ΔG/RT/1+e^−ΔG/RT, in which Sobs is the measured protein signal at a given temperature (T). SN and SU are intercept at 0 K with the y-axis of the linear extrapolation for the native and unfolded pre- and posttransition regions, respectively, while mN and mU are the corresponding slopes. The stabilization Gibbs energy depends on temperature according to ΔG = ΔH(1 − 1/Tm) + ΔCP(T − Tm − Tln(T/Tm)), where ΔH is the unfolding enthalpy, Tm is the midtransition temperature, ΔCP is the unfolding heat capacity change, and R is the ideal gas constant.

[3] = Stopped-flow reduction of hAIF∆1-101ox by NADH (hydride transfer); type: biochemical; settings: for k HT/Kd^NADH / k HT / Kd: pre-steady-state, 25°C, pH 7.4; for k HT: hydride transfer from NADH to FAD, aerobic, 50 mM potassium phosphate; for Kd: transient hAIF∆1-101ox:NADH complex, read-out: K d ^NADH
Description: A SX18.MV stopped-flow spectrophotometer (Applied Photophysics Ltd., Surrey, UK), interfaced with the ProData-SX software and a photodiode array detector, was used to investigate the fast kinetic reduction of the hAIF variants by the NADH coenzyme. Samples of ~10 μM hAIF∆1-101ox were mixed with increasing concentrations of NADH (0.03-10 mM) under aerobic conditions in 50 mM potassium phosphate, pH 7.4, at 25 °C. The enzyme and NADH concentrations are the final ones obtained after mixing equal volumes of substrate and enzyme. Observed rate constants for the hydride transfer (HT) event (kobs) were calculated by global analysis and numerical integration methods (simultaneously using all spectral data in the 400-800 nm region along time evolution). A single-step model (A→B) best fitted to describe the overall reaction at all NADH concentrations assayed. Averaged kobs values at each NADH concentration were then fitted to the equation that describes the formation of an enzyme:substrate complex prior to the HT event: (3) kobs=kHTNADH/KdNADH+NADH+krev, where kHT is the limiting rate constant for HT from the pyridine nucleotide coenzyme to the FAD cofactor of hAIF, Kd^NADH is the dissociation constant of the transient hAIF∆1-101ox:NADH complex, and krev is the reaction constant for a potential overall reverse process.

[4] = Reactivity of the CTC towards molecular oxygen (CTC half-life); type: biochemical; settings: 25°C, air saturated 50 mM potassium phosphate, pH 7.4
Description: The reactivity of the CTC towards molecular oxygen was monitored by full reduction of hAIF∆1-101 samples with NADH (1.5-fold the concentration of the protein) in 50 mM phosphate buffer, pH 7.4, and following their reoxidation in a Cary 100 spectrophotometer (Agilent, Santa Clara, CA). Absorption spectra were recorded at 25 °C until full oxidation of the flavin cofactor was achieved. For each time, the percent remaining of CTC versus reoxidation by molecular oxygen was estimated as ΔAt/ΔAmax, where ΔAmax is the difference between the minimum and the maximum absorbance at 700 nm, and ΔAt is the difference of each value at 700nm minus the minimum absorbance at 700 nm. The CTC half-life is the time at which 50% of CTC still remains.

[5] = Steady-state DCPIP-dependent diaphorase (NADH oxidase) activity; type: biochemical; settings: for K m ^NADH / k cat: steady-state, NADH donor, 95 μM DCPIP acceptor, 25°C, 50 mM potassium phosphate, pH 7.4 (table footnote); for k cat: n = 3, mean ± SD
From the text: […] When saturation profiles on the pyridine nucleotide concentration were observed, kinetic constants were estimated by fitting initial reaction rates at different coenzyme concentrations to the Michaelis-Menten equation: (2) ν/e=kcat NADH/KmNADH+NADH,ν/e=kcat/KmNADHNADH/1+kcat/KmNADHNADH/kcat, where v stands for the initial velocity, e is the enzyme concentration, Km^NADH is the Michaelis constant for the enzyme-NADH complex, kcat is the turnover number of the enzyme, and kcat/Km^NADH is the enzyme catalytic efficiency.

CypA = molecular target: T2, CypA (Homo sapiens, UniProt P62937); assay: ITC binary interaction with CypA; type: binding; settings: oxidized hAIF∆1-101 titrated with CypA, 25°C, pH 7.4
T2 construct: His6 (N); made in house; host or cells: E. coli C41 (DE3)
Description: as §1

[6] = CTC form (premixed with NADH 1:100) titrated with CHCHD4, ITC, read-out: K d
[7] = CTC form titrated with CHCHD4, ITC
[8] = oxidized hAIF∆1-101 titrated with CHCHD4, ITC
[9] = CTC hAIF∆1-101rd:NAD^+, 100-fold excess NADH
[10] = CTC hAIF∆1-101rd:NAD^+, 100-fold excess NADH, pH 7.4, ionic strength 150 mM
[11] = hAIF∆1-101ox, pH 7.4, ionic strength 150 mM
[12] = steady-state DCPIP diaphorase reaction

T2 sequence (P62937 whole entry): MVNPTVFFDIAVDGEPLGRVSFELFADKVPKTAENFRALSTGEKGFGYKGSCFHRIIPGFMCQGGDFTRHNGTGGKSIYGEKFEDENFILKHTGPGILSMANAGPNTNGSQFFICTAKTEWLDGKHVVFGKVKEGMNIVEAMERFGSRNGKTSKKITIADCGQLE

Substance	k CTC [1] [s⁻¹]	k CTC/Kd^NAD+ [1] [M⁻¹ s⁻¹]	decrease in Kd^NAD+ relative to WT ([1]; hAIF∆1-101phrd with NAD+)	Kd [1] [µM]	Kd (CHCHD4; [6]) [µM]	ΔG (CHCHD4; [7]) [kcal/mol]	ΔH (CHCHD4; [7]) [kcal/mol]	ΔH (unfolding enthalpy) [2, 9] [kcal/mol]	T m CTC ^FAD [2, 10] [K]	T m CTC ^FAD − Tm^FAD [2] [K]	ΔH (unfolding enthalpy) [2, 11] [kcal/mol]	ΔTm^FAD ([2]; hAIF∆1-101ox) [K]	T m ^FAD [2, 11] [K]	k HT/Kd^NADH [3] [M⁻¹ s⁻¹]	k HT [3] [s⁻¹]	Kd [3] [µM]	CTC half-life versus reoxidation by O2 [4] [min]	increase in turnover rate relative to WT [5, 12]	K m ^NADH [5] [µM]	k cat [5] [s⁻¹]	other results
W196A: W196A site-directed mutant of hAIF∆1-101; ox = oxidized, CTC = charge transfer complex with NAD+	30 ± 1	76000 ± 10000	~ 5 fold	394 ± 50	0.5	-8.3	-5.9	170 ± 4	326 ± 1	0	103 ± 3	−11 ± 2	326 ± 1	117000 ± 5300	126 ± 1	1070 ± 40	62	~ 5 fold	25 ± 4	4.3 ± 0.2	Kd (CHCHD4; oxidized hAIF∆1-101 titrated with CHCHD4, ITC, 50 mM potassium phosphate, listed as W196Aox, read-out: K d): ~0.4 µM and 0.4 µM; -TΔS (CHCHD4; [8]): -18.0 kcal/mol; ΔG (CHCHD4; [8]): -8.4 kcal/mol; ΔH (CHCHD4; [8]): 9.6 kcal/mol; Kd for DNA higher than WT (dsDNA): ~ 4 fold; Kd (dsDNA): 5.8 µM; higher affinity for the NADH substrate relative to WT ([3]; stopped-flow, NADH): ~ 5 fold; -TΔS (CypA): -34.9 kcal/mol; ΔG (CypA): -7.6 kcal/mol; ΔH (CypA): 27.3 kcal/mol
W196L: W196L site-directed mutant of hAIF∆1-101	29 ± 2	67000 ± 18000	~ 5 fold	433 ± 11	–	–	–	159 ± 4	324 ± 1	−2 ± 2	118 ± 3	−11 ± 2	326 ± 1	21000 ± 3000	36 ± 1	1720 ± 210	32	~ 3 fold	187 ± 18	2.8 ± 0.1	ΔTm CTC^FAD [2]: 0 K; decrease in Km^NADH relative to WT [5, 12]: ~ 3 fold; efficiency oxidizing NADH relative to WT [5, 12]: ~ 8 times
W196Y: W196Y site-directed mutant of hAIF∆1-101; ox = oxidized, CTC = charge transfer complex with NAD+	16 ± 1	87000 ± 14000	~ 11 fold	183 ± 27	2.1	-7.5	-8.2	167 ± 4	323 ± 1	−6 ± 2	123 ± 3	−8 ± 2	329 ± 1	4000 ± 800	12 ± 1	2870 ± 320	42	~ 3 fold	505 ± 35	2.7 ± 0.1	decrease in kCTC relative to WT ([1]; hAIF∆1-101phrd with NAD+): less than 3 fold; -TΔS (CHCHD4; [7]): 0.7 kcal/mol; Kd for CHCHD4 higher relative to WT CTC (CHCHD4; CTC form, ITC): ~ 10 fold; Kd (CHCHD4; oxidized hAIF∆1-101 titrated with CHCHD4, ITC, 50 mM potassium phosphate, listed as W196Yox): heat exchange was not observed; also recorded: No detected binding; Kd for DNA higher than WT (dsDNA): ~ 4 fold; Kd (dsDNA): 6.9 µM; ΔTm CTC^FAD [2]: −1 ± 2 K; efficiency as hydride acceptor from NADH relative to WT ([3]; stopped-flow, NADH): ~ 12 fold; efficiency oxidizing NADH relative to WT [5, 12]: ~ 3 times; -TΔS (CypA): -24.9 kcal/mol; ΔG (CypA): -7.9 kcal/mol; ΔH (CypA): 17.0 kcal/mol
